Substitutions are numbered along the chain they refer to. In names and notes the source's numbering stands.
T1: full-length mouse BICD2 (mouse), Q921C5
T1 chain: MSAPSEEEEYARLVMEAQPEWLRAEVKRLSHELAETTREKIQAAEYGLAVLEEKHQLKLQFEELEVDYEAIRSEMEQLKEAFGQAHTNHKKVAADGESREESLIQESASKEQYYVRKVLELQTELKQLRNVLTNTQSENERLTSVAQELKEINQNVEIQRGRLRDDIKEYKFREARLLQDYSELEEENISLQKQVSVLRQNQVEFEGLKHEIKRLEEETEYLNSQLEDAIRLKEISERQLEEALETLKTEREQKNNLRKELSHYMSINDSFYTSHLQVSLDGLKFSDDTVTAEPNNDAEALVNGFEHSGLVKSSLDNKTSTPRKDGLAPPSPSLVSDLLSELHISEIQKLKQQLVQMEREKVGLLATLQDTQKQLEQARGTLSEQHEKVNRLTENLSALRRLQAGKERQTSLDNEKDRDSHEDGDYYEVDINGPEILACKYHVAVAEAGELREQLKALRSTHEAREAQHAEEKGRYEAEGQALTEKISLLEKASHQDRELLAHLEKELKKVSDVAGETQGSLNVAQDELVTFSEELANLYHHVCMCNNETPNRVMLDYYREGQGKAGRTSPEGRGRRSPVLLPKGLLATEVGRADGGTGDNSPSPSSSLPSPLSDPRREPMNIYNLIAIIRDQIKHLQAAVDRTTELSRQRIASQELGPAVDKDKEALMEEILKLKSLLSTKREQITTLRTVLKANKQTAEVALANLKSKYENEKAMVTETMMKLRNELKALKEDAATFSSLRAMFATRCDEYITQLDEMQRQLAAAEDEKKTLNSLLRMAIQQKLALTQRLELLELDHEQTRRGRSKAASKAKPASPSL

B1: full-length mouse BICD2, Q921C5 1-820 (natural protein)
chain: T1 chain
B2: CC3 of BICD1 (mouse BICD1 residues 713-802) (domain or fragment)
chain: YENEKAMVTETMTKLRNELKALKEDAATFSSLRAMFATRCDEYVTQLDEMQRQLAAAEDEKKTLNTLLRMAIQQKLALTQRLEDLEFDHE
B3: Strep-BICD2^711-800 L786A (domain or fragment)
chain: B2 chain with T13M, V44I, T66S, L76A, D84L, F87L
B4: BICD2^711-800 (CC3 domain of BICD2) (domain or fragment)
chain: B2 chain with T13M, V44I, T66S, D84L, F87L
B5: Strep-BICD2^711-800 L742A (domain or fragment)
chain: B2 chain with T13M, L32A, V44I, T66S, D84L, F87L
B6: Strep-BICD2^711-800 L742A/L786A (domain or fragment)
chain: B2 chain with T13M, L32A, V44I, T66S, L76A, D84L, F87L
B7: ScaC-AF647 (AF647-labelled ScaC-SNAP) (domain or fragment)
chain: VSNMNLDISNMGEAREGLRKDIAEVSKLLCMLEKSTASSKNLTMRLQQSDTRENEQSNHIRLLITEIESINKENDCLRQKNNQLKIKLHQLKVKLEQALARNTDLQQILPKSQAEMDNLRKQNEQLKIQLQQLQVKLQDLMSLQNKCSNLALINSVKLNYIRDIKYIALANIVIVKALASTFTEKLSKSNR
modifications: Alexa Fluor 647 on the SNAP tag
B8: ScaC passenger domain (residues 33-223), purified (domain or fragment)
chain: B7 chain
B9: ScaC[50-159] (domain or fragment)
chain: LRKDIAEVSKLLCMLEKSTASSKNLTMRLQQSDTRENEQSNHIRLLITEIESINKENDCLRQKNNQLKIKLHQLKVKLEQALARNTDLQQILPKSQAEMDNLRKQNEQLK
B10: BICD2N (BICD2 residues 1-400) (domain or fragment)
chain: MSAPSEEEEYARLVMEAQPEWLRAEVKRLSHELAETTREKIQAAEYGLAVLEEKHQLKLQFEELEVDYEAIRSEMEQLKEAFGQAHTNHKKVAADGESREESLIQESASKEQYYVRKVLELQTELKQLRNVLTNTQSENERLTSVAQELKEINQNVEIQRGRLRDDIKEYKFREARLLQDYSELEEENISLQKQVSVLRQNQVEFEGLKHEIKRLEEETEYLNSQLEDAIRLKEISERQLEEALETLKTEREQKNNLRKELSHYMSINDSFYTSHLQVSLDGLKFSDDTVTAEPNNDAEALVNGFEHSGLVKSSLDNKTSTPRKDGLAPPSPSLVSDLLSELHISEIQKLKQQLVQMEREKVGLLATLQDTQKQLEQARGTLSEQHEKVNRLTENLSALR

Tests used:
[1] = molecular target: T1, full-length mouse BICD2 (mouse), Q921C5; experiment: SEC-MALS; settings: remark: other sources report otherwise
[2] = molecular target: B8; experiment: SEC
[3] = molecular target: B8; experiment: pull-down
[4] = molecular target: Rab6^Q72L (GTP-locked Rab6 mutant) (human, UniProt P20340 1-208, Q72L); experiment: pull-down
[5] = molecular target: BICD2-AF488 (AF488-labelled BICD2-SNAP) (mouse, UniProt Q921C5 1-820, Alexa Fluor 488 on the SNAP tag); experiment: single-molecule TIRF co-migration on microtubules
full-length mouse BICD2 [6] = molecular target: T2, full-length mouse BICD2 (mouse, UniProt Q921C5 1-820); experiment: SEC-MALS
SEC-MALS = molecular target: the molecule itself; experiment: SEC-MALS
full-length mouse BICD2 [7] = molecular target: T2, full-length mouse BICD2; experiment: SEC
[8] = molecular target: BICD2C (BICD2 residues 342-800) (mouse, UniProt Q921C5 342-800); experiment: SEC

Chain of Rab6^Q72L (GTP-locked Rab6 mutant) (P20340 whole entry Q72L): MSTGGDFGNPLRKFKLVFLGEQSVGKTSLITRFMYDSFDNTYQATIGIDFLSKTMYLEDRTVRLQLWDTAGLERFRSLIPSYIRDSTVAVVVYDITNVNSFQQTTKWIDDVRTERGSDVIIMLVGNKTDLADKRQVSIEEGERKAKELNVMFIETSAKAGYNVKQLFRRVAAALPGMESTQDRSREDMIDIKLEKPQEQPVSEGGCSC

Binder: B1
stoichiometry N [1]: 2

Binder: B2
binding result [2]: binds

Binder: B3
binding result [3]: binds

Binder: B4
binding result [4]: binds | binding result [3]: binds

Binder: B5
binding result [3]: binds

Binder: B6
binding result [3]: binds

Binder: B7
binding result [5]: binds

Binder: B8
stoichiometry N (full-length mouse BICD2 [6]): 1 ScaC chains per BICD2 chain (2:2) | stoichiometry N (SEC-MALS): 2

Binder: B9
binding result (full-length mouse BICD2 [7]): binds

Binder: B10
binding result [8]: binds

Reference: publication doi:10.1101/2024.04.11.589026 (bioRxiv, 2024)
